# Measured values taken from publication doi:10.1101/2025.06.28.662095, “Mechanistic insights into the allosteric regulation of cell wall hydrolase RipA in Mycobacterium tuberculosis” (bioRxiv, 2025).
# T1: MtRipACAT (catalytic domain of M. tuberculosis RipA, residues 261-472) (Mycobacterium tuberculosis, UniProt O53168 261-472)
# T1 construct: also called MtRipA catalytic domain; NlpC/P60 catalytic domain; not shown: 6xHis-SUMO, N-terminal, cleaved
# T1 sequence: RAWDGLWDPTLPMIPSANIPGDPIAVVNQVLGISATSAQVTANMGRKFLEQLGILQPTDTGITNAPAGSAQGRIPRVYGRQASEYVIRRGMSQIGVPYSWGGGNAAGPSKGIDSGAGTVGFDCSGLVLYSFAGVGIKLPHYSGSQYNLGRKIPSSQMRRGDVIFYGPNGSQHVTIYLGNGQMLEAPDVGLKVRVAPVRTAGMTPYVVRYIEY
# B1: MtRipACC (coiled-coil domain of M. tuberculosis RipA, residues 40-240) (domain or fragment)
# chain: DPQTDTIAALIADVAKANQRLQDLSDEVQAEQESVNKAMVDVETARDNAAAAEDDLEVSQRAVKDANAAIAAAQHRFDTFAAATYMNGPSVSYLSASSPDEIIATVTAAKTLSASSQAVMANLQRARTERVNTESAARLAKQKADKAAADAKASQDAAVAALTETRRKFDEQREEVQRLAAERDAAQARLQAARLVAWSSE
# modifications: biotinylated with EZ-Link NHS-PEG4-Biotin (20 molar excess) for the BLI assays
# notes: also called RipA coiled-coil (CC) domain; MtRipA CC domain; not shown: 6xHis-SUMO, N-terminal, cleaved
# Molecular target: T1, MtRipACAT (catalytic domain of M. …)
# Assay: BLI; biotinylated MtRipACC immobilised on streptavidin biosensors; 25°C; 25 mM HEPES pH 7.5, 150 mM NaCl, 5% glycerol, BSA 1 mg/mL, 0.05% Tween 20; steady-state signal versus concentration, one-site binding model; apparent Kd
# Settings: both partners purified
binder,measurement,value
B1,Kd,6.8 ± 1.4 µM
